# According to the nanobody polyreactivity screen of Harvey et al. (2022):
# Experiment: yeast display, Sf9 membrane polyspecificity reagent, FACS + sequencing; frameworks hold sequencing errors
# How it was run: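 Using colony PCR, genes from sorted yeast display clones were amplified, then sequenced on MiSeq at 2 × 250 and filtered by CDR length. The clones had been stained with 10% biotinylated, detergent-solubilized Sf9 membrane reagent for 1 hour at 4 °C and sorted by FACS into low and high (top ~1%) gates on anti-HA and streptavidin fluorescence. Polyreactivity labels come from the gate of origin.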
row,Sequence,polyreactivity (PSR sort gate)
1,QVQLGDSGGGLLQAGGSLRLSCAASGRTFYYNALGWYRQAPGKERELVARIRSGGSTNYADSVKGRFTISRDNAKNTVYFQMNSRKPEDTAVYYCNALGAKGYVKGFDYWGLGTQVTVSS,low polyreactivity
2,QVQLVESGGGLVQAGGSLRLSCAASGRTFRPYAMGWYRPAPGKERELVAAITGGTRTYYADSVKGRFTISRDNAKNTVYLQMNSLKPEDTAVYYCAKGDFFSKHDYWGQGTQVTVSS,low polyreactivity
3,QVQLLESGGGLVQAGGRLRLSCAASRNTFRQTAMGWNRQAPGKETELVASITSGGSTYYADSVQGRFTISRDNAKNTVYLQMNSLNPEDTAVYYCASRYIRSASWFYRIYDYWGQGTQVTVSS,high polyreactivity
4,QVQLVESGGGLVQAGGSLRLSCAASGSIFERYDMGWYRQAPGKERELVAAITSAGITYYADSVKGRFTISRDNAKNTVYLQMNSLKPEDTAVYYCAAQGRRGAPYRHVIEGDYWGQGTQVTVSS,low polyreactivity
5,QVQLVESCGGLVQAGGSLRLSCAASGSIIFPYALGWYRQAPGKERELVAAISWSGGRTYYADSVKGRFTISRDNAKNTVYLQMNSLKPEDTAVYYCAADGYPYFYGDFDYWGQGTQVNVSS,high polyreactivity
6,QVQLVESGGGLVQAGGSLRLSCAASGSIFTDNAMGRYRQAPGKERELVAAITSNGGSTYYADSVKGRFTISRDNAKNTVYLQMNSLKPEDTAVYYCAADSLYREDDYWGQGTQVTVSS,low polyreactivity
7,QVQLVESGGGLVQAGGSLRLSCAASGSIFSQYLMVWYRQAPGKERELVAAISWSGGHTYYADSVKGRFTISRDNAKNTVYLQMNSLKPEDTAVYYCATVPRKTPGNAELDYWGHGTQVTVSS,high polyreactivity
8,QVQLVESGGGLVQAGGSLRLSCAASGRIFSYYAMGWYRQAPGKERELVAAISSSGGSTYYADSVKGRFTISRDNAKNTVYLQMNSLKPEDTAVYYCAKLQYGFGRYGYWGQGTQVTVSS,high polyreactivity
9,QVQLVESGGGLVQAGGSLRVSCAASGSIFYGNAMGWYRQAPGKARELVAAISNVGRTDYADSVKGRFTISRDNAKPTVYLQMNSLKPEDTADYSCAAGVYSGSNRYYAPRSWFGYYYWGQGTQVTVSS,low polyreactivity
10,QVQLVDSGGGLVQAGGSLRLSCADSGRTFWGYGKGWYRQATGKERELVATISSGGSTYYADSVKGRFTISRDNAKNTVYLQMNSLKPEDTAVYYCAARPPPTYWRYQSDYWGQGTQVTVSS,high polyreactivity
11,QVQLQDSGGGLVQARGSLRPSCAASGTISDGVPMGWYRQAPGEVRELVATTVLGATTNYADSVKGRFTISRGNAKNTVYLQMNSLKPEETAVYYCAAPLRYDKGFSYWGQGTQVTVSS,low polyreactivity
12,QVQLVESGGGLVQAGGSLRLSCAASGSIFRQYAMGWYRQAPGKDRELVAAIRSGGSTYYADSVQGRFTISRDNAKNTVYLQMNSLKPEDTAVYYCARGYSWSVGYPRVQDMDYWGQGTQVTVSS,high polyreactivity
13,QVQLVESGGGLVQAGGSLRLSCAASGSTFFYNAMGWYRKAPGKERELVAAITGSGTRTYYADSVKGRFTISRDNAKNTVYLQMNSLKPEDTAVYYCAKYPHPLKYRGYPSEFDYWGQGTQVTVSS,low polyreactivity
14,QVQLVESGGGLVQAGGSLRLSCAASGFTFANNAMGWYRQAPGKERELVAAITSSGTRTYYADSVKGRFTISRDNAKNTVYLQMNSLKPEDTAVYYCAADKPGRPSRMYYWGQGTQVTVSS,high polyreactivity
15,QVQLVESGGGLVQAGGSLRLSCAASGRIFATYAMGWYRQAPGKERELVAAISDSGGRTYYADSVKGRFTISRDNAKNTVYLQMNSLKPADTALYYCAAKNGDRYARGYWGQATQVTVSS,high polyreactivity
16,QVQLVESGGGLVQAGGSLRLSCAASGSTFQTYAMGWSRQAPGKERELVAAISFNGGSTYYADSVKGRFTISRDNAKNTVYLQMNSLKPEDTAVYYCAVEYTWATALYDGRHDYWGQGTQVTVSS,high polyreactivity
17,QVQLVESGGGLVQAGGSLLLSCSASGRTFAYNAMGLYRQAPGKEREWVASISSSDTSTYYADSVNGRFTISRDNAKNTVYLQMNSLKPVDTAVYYCAADGHPFKGVRYYYWGQGTQVTVSS,low polyreactivity
18,QVQLVESGGGLVQAGGSLRLSCAASGSTFGGYALGWDRQAPGKDRELVAAISRSGGRTYYADSVKGRFTISRDNAQNTVYLQMNSLKPEATAVYDCYPYYIASTFDYWGHGTQVTVSS,high polyreactivity
19,QVQLVESGGGLVQAGGSLRLSCAASGSIVGIYVMGWYRQAPGKERELVAGISPRGGSTYYADSVKGRFTISRDYAKNTVYLQMNSLKPEDTAVYYCAAVPASFRYPMYYLGQGTQVTVSS,low polyreactivity
20,QVQLVESGGGLVQAGGSLRLSCAASGITFRYYAMGWYRQAPGKERELVAAISDGGSTNYADSVKGRFTISRDNAKNTVYLQMNSLKPEDTAVYYCDADYRYLFDYWGQGTQVTVSS,high polyreactivity

row,Sequence,polyreactivity (PSR sort gate)
1,QVQLVESGGGLVQAGGSLRLSCAASGSIFTPNAMGWYRQAPGKERELVAAISRSGGSTYYADSVKGRFTISRDNAKNTVYLQMNSLKPEDTAVYYCAVDYRYYYRYTSGEYWGQGTQGTVSS,low polyreactivity
2,QVQLVESGGRLVQAGGSLRLSCAASGFTFPTYAMGWYRQAPGKERELVAAITRGGSTYYADSVKGRFTISRDNAKNTVYLQMNSLKPEDTAVYYCAADDPWYEEDYWGQGTQVTVSS,low polyreactivity
3,QVQLVESGGGLVQAGGSLRLSCAASGRTFGQNAMGWYRQAPGKERELVAAISWRGARTFYADSVKGRFTISRDNAKNTVYLQMNSLKPEDTAVYYCAARYSAYRRNVAYDYWGQGTQVTVSS,high polyreactivity
4,QVQLVESGGGLVQAGGSLRLSSAASGFTFRIYAMGWYRQAPGKERELVATISWSGTSTYYADSVKGRFTISRDNAKNTVYLQMNSLKPEDTAVYYCAKDGVSFYWLNKYYYWGQGTQVTVSS,low polyreactivity
5,QVQLVESGGGLVQAGGSLRLSCAASGRIFTGYAMGWYRQAPGKERELVAAISRGGSTNYADSAKGRFTISRDNAKNTVYLQLNSLKPEDTAVYYCAAGVHWDRGDYWGQGTQVTVSS,low polyreactivity
6,QVQLVESGGGLVQAGGSLRLSCAPSGIIFSPNAMGLYRQAPGKERELVASISSDSSTNYADSVKGRFSISRDNAKNTVYLQMNSLKPEYTAVYYCAADFVVGQAGDWTFWFDYWGQGTQVTVSS,low polyreactivity
7,QVQLVESGGGLVQAGGSLRLSCAASGYIFYYNGMGWYRQAPGKERELVAVISRRGGSTYYADSVKGRFTISRDNAKNTVYLQMNSLKPEDTAVYYCNARARSSRTYKYDYWGQGTQVTVSS,high polyreactivity
8,QVQIVESGGGLDQAGGSLRLSCAASGRTLGYYAMVWYRQAPGIERELVAAISRTGGRTYYADSVKGRFTISLDNAKNTVYLQMNSLKPEDTAVYYCAVVAPDGYDFYYWGQGTQVTVSS,high polyreactivity
9,QVQLVESGGGLVQAGGSLRLSCAASGRTFGYYAMGWYRQAPGKEREFVAAISHSAGSTSYADSVKGRFTISRDNAKNTVYLQMNSLKPEDTAVYYCAADNPWYEMDYWGQGTQVTVSS,low polyreactivity
10,QVQLVESGGGLVQAGGSLRLSCAASGSTFSFNAMGWYRQAPGKERELVAAISRSGGRTYYADSVKGRFTISRDNAKNTVYLQMNSLKPEDTAVYYCNKVWFQRSVQPVEYVYWGQGTQVTVSS,high polyreactivity
11,QVQLVESGGGLVQAGGSLRLSCAASGSTFNRNAMGWYRQAPGKERELVAAISWRGDSTSYADSVKGRFTISRDNAKNTVYLQMNSLKPEDTAVYYCAAYRVILYYLYDYWGQGTQVTVSS,low polyreactivity
12,QVQLVESGGGLVQAGGSLRLSCAASGRTFGKNAMGWYRQAPGKERELVAAISFSGGRTYYADSVKGRFTISRDNANNTVYLQMNSLKPEDTAVYYCAARGSRRGTWYDYWGQGTQVTVSS,high polyreactivity
13,QVQLVESGGGLVQAGGSLRLSCAASGSIFQWNAMGWYRQAPGKERELVAAMSWSGTRTYYADSVKGRFTISRDNAKNTVYLQMNSLKPEDTAVYDCAFRGGKPTYRYDYWGQGTQVTVSS,high polyreactivity
14,QVQLVESGGGLVQAGGSLRLSCAASGFTFAYYAMGWYRQAPGKERELVAAITVSGASTYYADSVKGRFTISRDNAKNTVYLQMNSLKPEDTAVYYCNASSVSFYYLEPSQPMDYWGQGTQVTVSS,high polyreactivity
15,QLQLVESVGGLDQAGGSLRLSCAASRSNFGPYAIGWYRQAPGKERELVAAITWSGDSTYYADSVKGRFTISRDNEKNTVYLQMNSLKPEDTAVYYCAAETFIWGKGTQVTVSS,low polyreactivity
16,QVQRVETGGGLVQAGGSLRLSSAASGSTLPGNTMGWYRQAPGKERELVAAISKSGGTTYYADSVKGRFTISRDNAKNTVYLQMNCLKPEDTAVYYCAAKPWVWVYARYGKHPSYDYWGQGTQVTVSS,high polyreactivity
17,QDQLVDSGGGLVQAGGSLRLSSAASGFSYGGYAMGWYRQAPGKERELVAAISSGGGTTYADSVKGRFTISRDNAKYTVYLQMNSLKPEDTAVYYCAAVTRDYRNDRRRQRCYYWGQGTQVTVSS,high polyreactivity
18,QVQLVESGGGLFQAGGSLRLSCAASGRIFHWYAMGWYRQAPGKERELHAAITDGDSTYYADSVKGRFTISRDNAKNTVYLQMNSLKPEDTAVYYCAADVVYSPYVFGGTRYYKYDYWGQVTQVTVSS,low polyreactivity
19,QVQLVESGGGLVQAGGSLRLSCAPSGSTFTYNAMGWYRQAPGKERELVASISSGTTTYYADSVKGRFTISRDNAKNTVYLQMNSLKPEDTAVYYCAVDSWSRVQGWLAHNYDYWGQGTQVTVSS,low polyreactivity
20,QVQLVESGGGLVQAGGSLRLSCAASGLTFYTNAMGWYRQAPGKERELVAAITSSGGRTYYADSVKGRFTISRDNAKNTVYLQMNSLKPEDTAVYYCAADARRPSIPEMYYCGQGTQVTVSS,high polyreactivity
